The test deals with CD22 (UniProt P20273). As to the kind of experiment: cell-based or functional assay.

Cytotoxicity IC50 (ng/ml) on CA46 cells, cytotoxicity IC50 (ng/ml) on Daudi cells and cytotoxicity IC50 (ng/ml) on Raji cells data for one substance are collected here from patent US20140213529A1.

Chain of UniProt P20273 (P20273 20-847 limits assumed): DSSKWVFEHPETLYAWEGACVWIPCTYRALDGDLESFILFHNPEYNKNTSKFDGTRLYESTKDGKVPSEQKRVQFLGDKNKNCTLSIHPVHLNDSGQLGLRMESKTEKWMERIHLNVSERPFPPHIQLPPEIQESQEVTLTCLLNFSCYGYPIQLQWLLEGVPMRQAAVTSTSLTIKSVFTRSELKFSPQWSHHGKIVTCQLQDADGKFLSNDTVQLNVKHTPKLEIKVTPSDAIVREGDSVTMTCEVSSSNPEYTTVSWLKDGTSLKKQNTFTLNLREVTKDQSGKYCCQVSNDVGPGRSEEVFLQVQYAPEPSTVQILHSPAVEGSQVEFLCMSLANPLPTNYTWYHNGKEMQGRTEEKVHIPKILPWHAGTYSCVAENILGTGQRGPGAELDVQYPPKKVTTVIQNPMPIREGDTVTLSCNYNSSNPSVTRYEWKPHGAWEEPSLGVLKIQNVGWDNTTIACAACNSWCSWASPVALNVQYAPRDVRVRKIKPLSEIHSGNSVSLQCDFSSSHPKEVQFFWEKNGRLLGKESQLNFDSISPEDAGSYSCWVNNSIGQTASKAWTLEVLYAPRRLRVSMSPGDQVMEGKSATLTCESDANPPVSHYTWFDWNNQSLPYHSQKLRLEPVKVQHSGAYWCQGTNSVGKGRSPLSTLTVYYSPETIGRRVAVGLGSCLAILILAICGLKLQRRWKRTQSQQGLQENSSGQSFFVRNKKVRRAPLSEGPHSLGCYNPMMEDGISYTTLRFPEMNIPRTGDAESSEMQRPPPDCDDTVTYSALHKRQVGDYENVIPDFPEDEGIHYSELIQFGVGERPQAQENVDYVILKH

In turn, HA22-LR registered a cytotoxicity IC50 (ng/ml) on CA46 cells of 0.11 ng/mL, a cytotoxicity IC50 (ng/ml) on Daudi cells of 0.18 ng/mL and a cytotoxicity IC50 (ng/ml) on Raji cells of 0.41 ng/mL.
